Assay: soluble on expression in E. coli; label from the status in PepcDB or PDB records

Sequence	soluble on expression in E. coli
MGSDKIHHHHHHMQAEKLMQVKDAVLKLRQQLRAGQIYQSLPSRMATLIKQLPSTVTTTVTIPSDEEVLPLIATLHEQLKKGTLTAMSDDQIKLLMAHVGSLNPLVRDQGVYYLLNEALQQQVLTPEQLGDIFDQLIQDQMLFAHIDEPQNDAIYQRSFAILLLSVLLYADHAGLKFMTPARLDLVVEQMTVYILLEKDTRGFVGTTGWAHAYTHIGNILDELADESQLARADKLLLLAALIARYQKLTTPLIFGEPERLSTYLTLITNKHELYCDYLLTAMKDWHQQLMMHTRPASEAEWTQIFNRNRLLEALALHDDLPTAVVDYLDDELEFLG	not soluble
MTELARLKFYATQPHTCSYLPEEQATTLFLDPSQPMDVQVYADLSDMGFRRSGDHLYRPHCQNCSACVPARIPVNLFVPDRQQKRILKRNADIQVSSAKPVFTQEYFDLYQRYIEQRHADGDMFPPSREQFSTFLVRDLPFSRFYEFRVDQRLLAVAVTDLLPNGLSAVYTFYEPDEERRSLGRYAILWQIGEATRLQLQAVYLGYWIKNCKKMNYKTQYRPIELLTNQRWVTLYLEHHHHHH	not soluble
MSLQIKFWPQDLKLAHTWTIASSVTSGSDVTSVGIVQLTDRDGTVGLGEAAPARRYNESTPGSLDFIAKVDATKLSFDNIEASMKYVESLASGQFAAKSAINVALLDGAARKAGKPIYDLLGLGFRNNHHVTSFSIGIDKADVIRKKVLAAEQYPVLKLKVGAADDKANLAALREAAPQKWVRVDANEGWKTKEHALEMIEWLAQDKFIQYIEQPMPADSNPKDIAWLKARSPLPLFGDESYHTAKDVDHCAECYHGVNVKLCKTGGISNAYEALQVARKAGLKTMIGCMIETSILISAAAHLAELCDYLDIDGNLLTTNDPYLGVTAEKGLLSFASAPEKLGLRVRAKEGHHHHHH	soluble
MSLTIDHSVTNTEQLEQQNPAIKTKLKLKKLKDQVIVITGASSGIGLVTARMAAEKGAKVVAAARNEEALKELTDELKEKGHDAIWVKADVGKEEDVNRIAETAISTFGRFDTWVNNAAVSTFGHAMDVTVEDMKRMFDTNFWGPVYGTRAAVKHYTGRGVPGALINVGSLFGDRGTVIQSTYASAKFALHGWTESIRMELEKEQAPVSVTLIHPGRIDTPYNEHAHSYLDKQPAHYRSMIYPPEAVAEAILFAAEHPKRDMYIGSQAKAIAMLGALFPRLTDRLMEKIMYHSQHAERPSNPREGHHHHHH	soluble
MDKDCEMKRTTLDSPLGKLELSGCEQGLHEIKLLGKGTSAADAVEVPAPAAVLGGPEPLMQCTAWLNAYFHQPEAIEEFPVPALHHPVFQQESFTRQVLWKLLKVVKFGEVISYQQLAALAGNPKAARAVGGAMRGNPVPILIPCHRVVCSSGAVGNYSGGLAVKEWLLAHEGHRLGKPGLGGSSGLAGAWLKGAGATSGSPPAGRN	soluble
MSLENSQELTPWQRLTIARMLERPTSLEYIDLIFDSFMEFHGDRAFGDDAAIVGGVAEFNGMPVTVIGQQKGRNTNENIKRNFGMPSPEGYRKALRLMKQAEKFNRPLICFVDTSGAYCGVEAEQRGQGEAIAKNLISMANLKIPVISVVIGEGGSGGALAMAVADEVWMLENSVYSLLSPEGFASILWKDSSRAKEAAEVMKITADDLKGYGIIDKVIKEPDGGAQNDITMVANALRENLKKAIEGLSSTGINELLDNRYNKFRQIGKFIENEDNEGHHHHHH	soluble
MSLAAHWEIAVKNSSRSAVDPFIVMDVMEAARRAEEAGRRIIHMEVGQPGTGAPRGAVEALAKSLETDALGYTVALGLPALRQRIARLYGEWYGVDLDPGRVVITPGSSGGFLLAFTALFDSGDRVGIGAPGYPSYRQILRALGLVPVDLPTAPENRLQPVPADFAGLDLAGLMVASPANPTGTMLDHAAMGALIEAAQAQGASFISDEIYHGIEYEAKAVTALELTDECYVINSFSKYFSMTGWRVGWMVVPEDQVRVVERIAQNMFICAPHASQVAALAALDCDAELQANLDVYKANRKLMLERLPKAGFTRIAPPDGAFYVYADVSDLTDDSRAFAAEILEKAGVAVTPGLDFDPERGAGTLRFSYARATADIEEGLDRLEAFMQARGEGHHHHHH	soluble
MGSSHHHHHHGKTIFVIVPTNEEQVAFLEALAKQDELNFDWQNPPTEPGQPVVILIPSDMVEWFLEMLKAKGIPFTVYVEEGGSENLYFQGGGGGGCCSLLFFVYIAFSLIHTLHHLFLFSECNISADERMDVPSEDYDVSIMIKAIHEVQDVLTSRQFATFSEVDTEIGKTLKRYEAFGDGFERFHVNLTKDALQSNDLQKSLKDMDKRCQDRLRDCASSQKDQINDILPFIRNTSSILVHGSGNLLALTIACSIQEHEGVRFYICEGRPARKGYPHGSGEQLLEKVLATPEGMRLKDKLHKYCTIVPDSGVSSVMNSVDFVIMGAYCVTEHGGLVHSTGSLQIAIVAAFRNVPCYVLCETFKFAHIFPLSTDDLKQPENGAGEVVPLVEFVPPSMITLIFSEQGIMPPSAVADEMFRFHTAPSAPGKRR	not soluble
NEYLNNVKSKYEVQKQRIQIQNDTRYMNEIEAHYNELRRFRHDYQNMLISIDEYLKTDDLEGLQEYYQKNLAPVSNRVLKEKYNLEDLSRVKVKSIKSILFSKLSYAQSQEIEVHFDLKEPLIDITVNELDLDIALGIMLDNAIEASVGHADGEIMSAIFIEKNSTVFLIQNNVFEQLPPLWKLKEAGYSTKGKNRGIGLNSLSKIVNRNENMILETRVLGAVFLQRLTVKRVSQND	not soluble
MSLSSKDLKLSTDVCEQILRVVSRSNRLEELVLENAGLRTDFAQKLASALAHNPNSGLHTINLAGNPLEDRGVSSLSIQFAKLPKGLKHLNLSKTSLSPKGVNSLSQSLSANPLTASTLVHLDLSGNVLRGDDLSHMYNFLAQPNAIVHLDLSNTECSLDMVCGALLRGCLQYLAVLNLSRTVFSHRKGKEVPPSFKQFFSSSLALMHINLSGTKLSPEPLKALLLGLACNHNLKGVSLDLSNCELRSGGAQVLEGCIAEIHNITSLDISDNGLESDLSTLIVWLSKNRSIQHLALGKNFNNMKSKNLTPVLDNLVQMIQDEESPLQSLSLADSKLKTEVTIIINALGSNTSLTKVDISGNGMGDMGAKMLAKALQINTKLRTVIWDKNNITAQGFQDIAVAMEKNYTLRFMPIPMYDASQALKTNPEKTEDALQKIENYLLRNHETRKYLQEQAYRLQQGIVTSTTQQMIDRICVKVQDHLNSLRNCGGDAIQEDLKSAERLMRDAKNSKTLLPNLYHVGGASWAGASGLLSSPIQETLESMAGEVTRVVDEQLKALLESMVDAAENLCPNVMKKAHIRQDLIHASTEKISIPRTFVKNVLLEQSGIDILNKISEVKLTVASFLSDRIVDEILDALSHCHHKLADHFSRRGKTLPQQEGHHHHHH	not soluble
MGSDKIHHHHHHMQELLCDRGKGRHADPMQNKPDTPPLSRFHQFRTADLDEARALVARNFCGHRLERQAREDAFDACQNRAGGNGLFYNYIRYGADVEIEPGELGSFYLIQVPIRGQALIRNGRTEVETGSAIASVLNPDRHTRMRWLAGCEQVLLQIDRNRLTAVAETLTGTALQSPVRFDPQIDRARPEMQRWLALFRRAVSAVDHGALLDPDQALSRALVEDELIAGFLRAQPSSIAPLLERPETGPLSPHVRRARDFMQAHLADPLTLSQIAAAAGTSPRNLQLGFSQLLEMTPLAYLRVLRLNYARYLLRESPPQVTIASIAGAAGFSHLGRFSAQYAARFGEGPSQTRKQHYLI	not soluble
MGHHHHHHSHMSCTVYAKTQQAKFLTWQFDGEYRGDDYTATLTLGNPDLIGESVIMVAHFLQSLTHRLVLGGELVYHRRPGEEGAILTLAGKYSAVHWVATLNVGSGGAHASYYHRANEQVQVGVEFEANTRLQDTTFSFGYHLTLPQANMVFRGLVDSNWCVGAVLEKKMPPLPVTLALGAFLNHWRNRFHCGFSITVG	not soluble
SHMALRIIPCLDIDGGAKVVVKGVNFQGIREVGDPVEMAVRYEEEGADEIAILDITAAPEGRATFIDSVKRVAEAVSIPVLVGGGVRSLEDATTLFRAGADKVSVNTAAVRNPQLVALLAREFGSQSTVVAIDAKWNGEYYEVYVKGGREATGLDAVKWAKEVEELGAGEILLTSIDRDGTGLGYDVELIRRVADSVRIPVIASGGAGRVEHFYEAAAAGADAVLAASLFHFRVLSIAQVKRYLKERGVEVRI	soluble
MSLTESARATVSLGFTAELFPPGTHMCYIYNDERERLEIMSEFVRSGIESGEKIAYFVEEMSPQALRDYLAGLGIVPTEEAQLEIAPSVDVYCPEGRFSPDRMLGRLRSAYEDGIREGFNGVRLTGEMHWALRGLPGSERLAEYESRINLLVVDCPLTVICQYDANHFDGATLFKILNAHPMMIVRGQVVHNPYYLSPEEYFARYPVPNVEGHHHHHH	soluble
MGSDKIHHHHHHMEKSKYKRDWSKYDENVITRYKLMFPFYVFEHWWDLLAEENRNARTKYKAPKEFNEFLAFLHIFLPYRAIEGVLRALEQLKIIPTSLDYSTIWERVRNMNITFPETSDELEVIADATGISTNTGGQYIVAKWGKTRDSKFLKIEIVMDNNEFNVINAEVTSNEVESAVKTVKDLQDKGKKVKKFYGDKAYDANEVYKTGVEVVVPPKKNASTKRHLARRKAVREFRKLGYDRWKEEKGYGVRWRVESLFSAVKRTFGESVRQVLLGK	not soluble
MSDTVVASAAVQAPAKTVKSPKAAKTTKVPKAKKPVAHPPYINMVTAAINGLKERKGSSKIAILKYITKNYNVGDQIIKINARLRDTLNKGVVSKALVQSVGTGASGRFRVTEKKAAAAKKPVAKKAATGEKKAKKPVAQKAATGEKKAKKTTATKTKKTADKVKKVKSPKKIAKPTAKKVAKSPAKKSAPKKAAAAKPAKKAVAPKT	soluble
ISKETEEIDEQQVFIDSLSGHAQILYEKYHVLPSITIAQAILESDWGNSELAAKANNLFGVKGNYKGHHVTMETDEVEKGKRKTIRAKFRKYSTFFESMDDHAQLFVRGTSWNKKKYKPVLEAGNYKEAATALQTSGYATDPDYADKISAIVEKYDL	not soluble
GPGSMQQSLIPGHNNNRHLTYDEVENNIGGLPVTDNRIQDLFDSLDVDHSGTVSVEVVKKFYMGLEHYGVDLSDKELDEMVRKYAATHDESLSYEEFACFVLSLAQW	soluble
MVWSATSRTKYSIKKSFFGCSMIELSNVNLHYPVPGHFSHSLQTTISSKIGGVLGSSSAKDKEMKYVHALRDINLKLEDSSRLGIIGHNGAGKTTLLRLLSQVYPPTSGKVTIEGKISALTDFTLGMDPNATGLKNIEFRLVFMGCTFKEAQQAVEEIVAFSELGEFINLPVRTYSTGMFLRLAFAISTHFTPDILILDEVIGAGDETFREKALSRLESLIKKSRMVVLSSHDLNAIKQYCDQAIVMEKGEIVFNGTPQSCIDYYLNSVKK	not soluble
MRKIVLLSQIVRPALSSARFVHTSTPLSWQKFENERHFEPGEDVMKRVWHGLSYDFRRWKRRFQEARKDAFKRRHPIAHMKHGTLDNEVFPYRAEIVIIGGGLSGSSTAFWLKERFRDEDFKVVVVENNDVFTKSSTMLSTGGITQQFSIPEFVDMSLFTTEFLRHAGEHLRILDSEQPDINFFPTGYLRLAKTDEEVEMMRSAWKVQIERGAKVQLLSKDELTKRYPYMNVDDVLLASLGVENEGTIDTWQLLSAIREKNITLGVQYVKGEVEGFQFERHRASSEVHAFGDDATADENKLRAQRISGVLVRPQMNDASARPIRAHLIVNAAGPWAGQVAKMAGIGKGTGLLAVPVPIQPRKRDVFVIFAPDVPSDLPFIIDPSTGVFCRQTDSGQTFLVGRTPSKEEDAKRDHSNLDVDYDDFYQKIWPVLVDRVPGFQTAKVKSAWSGYQDINTFDDAPVIGEHPLYTNLHMMCGFGERGVMHSMAAARAYAERIFDGAYINVNLRKFDMRRIVKMDPITEPCRL	not soluble
